{"source": "the DeepSol protein solubility set"}
{"assay": "soluble on expression in E. coli; label from the status in PepcDB or PDB records"}
{"sequence": "MAFVKPILLKSATCLLPRVLKLLFATLKINVGYAGEKLPDDQRGVMFAFWHGKMIAGWLLARRLYPKREISAVVSLSGDGQILSDTLDRLGFHLIRGSSSRGKEVVRRGIGVALSNGGVAAVTPDGPRGPHHRFKYGTLRLAAQHRTPVVFAEISYDNARRLKSWDRFEIPLPFSRVRVTLHVVQVPEFPTEEAFRAWADELSTGFDDALEHHHHHH", "soluble on expression in E. coli": "not soluble"}
{"sequence": "MGSDKIHHHHHHMNKTDIAQDTINAAVWTACDTFRGTVDPSVYKDYVLTMLFLKYVSDVWQDHYDDYKTKHGNKPGLIEELLKNERFVLPHRANFYTLYDQRHRPGNGERIDTALHAIEDANLGKLRDVFQDISFNANKLGEEQQKNDLLRHLLEDFAKPALNLRPSRIGQLDIIGNAYEYLIKNFASSSGKKAGEFYTPPEVSALMARLMDPQQGDEICDPTCGSGSLLLKCGRLIRERTGSGKYALYGQEAIGSTWALAKMNMFLHGEDNHRIEWGDTIRNPKLLAGNHLKHFDIVVANPPFSLEKWGHDSADTDPHDRFRRGLPPRTKGDYAFILHMIATMKPRTGRMAVVVPHGVLFRGAAEGRIRQKLIEENLLDVVIGLPEKLFYGTGIPAAVLVFRTKKKDKKVLFIDASRQYQDGKNQNLLRESDLQRILDTVQARQNVDKYAYLASPDEIAGHDYNLNIPRYVDTFEEEAEIDLMAVRREREQLKGELATLEMQMAAYLKELGYE", "soluble on expression in E. coli": "not soluble"}
{"sequence": "MISVNKVFYAHSERFQMQNMNVHIKAGEVVSLIGPNGSGKSTLLRLMARLLKQSEGDIVLDGKSIHTMKSADVAKQLAMLPQMHDHQLDLTVKELIEFGRGPHKSWRGRLNKEDEEIVDWALSVTNLEGYEYRLLQSLSGGERQRAWIAMTLAQRTNVLLLDEPTTFLDIVHQLEVMELVKRLNEEFGMTIIMVLHDINQAAQYSDRLLVLKRGKLQYDGVPEEVLCHEMFQHIFGIEVDIFQGSEKPFFTPKRISKKGGAKCEQKNVLPLS", "soluble on expression in E. coli": "not soluble"}
{"sequence": "MRLDHLRLQNFRCYEDAHFDFQPGFNLVVGVNGSGKTSLLLGVAECLIPYGNAMGQGQEILSKEDVRFVIDRHEGRSRFERKFPVFIRADGDIFDLPNWRAVRLLEPWEGGVDPSSLSHLSAVLARNNAGEQIDFPVLAFYRANRRWSSARISAEFAAQQRTSRFDGYANWFDAVADLRDFESWLIARTLERLQDRLDSTPTVEREDELEWVNRAIRLAIPDAHDLRYDLRLQSLLVDMGEGNAVPFHELSDGQRSLIALIADIARRMCVLNPHIGKDVLANTGGIVIIDELDIHLHPAWQRNIAPTLKKAFPKVQFIATSHSPQVIGSLQPGEVILLKNGDSSHPRATYGLDSSTILEEVMGVPQREPEIEVLLDELFSTLENNELEKARLQLDALKKKAPDLPEFAGAEALLKRKELIGRLEHHHHHH", "soluble on expression in E. coli": "soluble"}
{"sequence": "SDLSWIKPGKVAWDWWNDWNLDGVDFVTGVNNPTYKAYIDFASANGIEYVILDEGWAVNLQADLMQVVKEIDLKELVDYAASKNVGIILWAGYHAFERDMENVCRHYAEMGVKGFKVDFMDRDDQEMTAFNYRAAEMCAKYKLILDLHGTHKPAG", "soluble on expression in E. coli": "not soluble"}
{"sequence": "VNPKQPDLGVHVHLVRNVCTVSLDSSGASLDRRGYRTEAGEAPLRETLAAALVEMTGWDGTVPLLDPMCGSGTILVEAALKALNRAPGLIRERFGFQHWPSFDSSLWLRLVTEARQGERTSLESPLLGSDQQADLLSVAAANARRAGVEQHISFTSGDVRGLTPPPAPGIILFNPPYGRRLGDEEGLRVLYRQIGDVLKQRCAGYTAWLLTGGPELAKAVGLRASRRIVLFNGPLECRFLRFDLY", "soluble on expression in E. coli": "not soluble"}
{"sequence": "KIGYGKANPTTRLWVGGLGPNTSLAALAREFDRFGSIRTIDHVKGDSFAYIQYESLDAAQAACAKMRGFPLGGPDRRLRVDFAK", "soluble on expression in E. coli": "soluble"}
{"sequence": "MLRWIVLICISLFLPLSAYADKSDCINHHCIAVIDAGSSSSRLHIYAYDLDETNTPIAIREIWNRKAVPGLPTIEHENKSVSAYMEKLFSDAPAVLMPVYFYSTAGMRLLPKTHHRNVNQLVAEWFDRQYYWRLVTARTISGTEEGIFAWLATNYQLNLFQQEPQTLAGVMDIGGASVQIVIPVVNPSFMDHEHTTTIRLYGKEFTVFSHSFLGLGQNEMGHQFFDLKFCFPEEYELPSGRQARGDAYACKDEIAILVNSVHSVSRKIKSVLAANPIEKWYILGGITFMLNDKLFSLDNQYFTNRDLISYADQNICHQKWSTLEVLYPDNLMVFNYCMLPSYLYALLVHGYGLKSYQKVNFMPNSKNIDWTLGVVLQHKQSAAALEHHHHHH", "soluble on expression in E. coli": "not soluble"}
